# Values joined by “and” are separate entries in the source; they are usually repeats but may differ in a detail not shown here. Identical values can stand only once. Like-named read-outs stand apart in the source and are kept apart here.
# B1: 抗H7N9全人源单克隆抗体7T33 (antibody, V domains shown)
# VH: QVQLVESGAEVKKPGASVKVSCKASGTIFYSTEINWVRQATGQGLEWMGWMNPESGEYGFAQKFQGRVTMTRNTSITTAYMELSSLTSEDTAVYYCAYGNAECSAGGSCTNWFGEPWGQGTLVTVSS
# VL: SSELTQDPAVSVALGQTVRITCQGDRLRSTTASWYQQKPGQAPVLVIYGKNNRPSGIPDRFSGSSSGNTASLTITGAQAEDEADYYCNSREYSGTHLVFGGGTKLTVLV
# Columns and labels:
# [1] = target: H7N9病毒的HA蛋白(购自ACROBiosystems) (H7N9 influenza virus); experiment: ELISA, HA coated at 100 ng/well, negative control, anti-human IgG-HRP
# [2] = target: H7N9病毒的HA蛋白(购自ACROBiosystems) (H7N9 influenza virus)
# [3] = target: H7N9病毒的HA蛋白(购自ACROBiosystems) (H7N9 influenza virus); remark: listed apart in the source
# [4] = target: H7N9病毒 A/Anhui/1/2013 (H7N9 influenza virus A/Anhui/1/2013); experiment: cell-based or functional assay
Molecule,450nm absorbance [1],450nm absorbance [2],Kd [3] [nM],"IC50, micro-neutralisation ELISA on MDCK cells infected with H7N9 virus [4] [µg/mL]"
阴性对照 (negative control of the ELISA),0.0675 OD450 and 0.0554 OD450,,,
B1,,1.53 OD450 and 1.86 OD450 and 1.8 OD450,5.43,12.8

# From patent CN111434682A
